Results from FireProtDB (doi:10.1021/bi00093a001).

B1: Subtilisin-chymotrypsin inhibitor-2A, P01053 (parent)
chain: MSSVEKKPEGVNTGAGDRHNLKTEWPELVGKSVEEAKKVILQDKPEAQIIVLPVGTIVTMEYRIDRVRLFVDKLDNIAQVPRVG

Variants of: B1
Conditions: Hordeum vulgare, MES 450 mM, reversible: yes, structure 2CI2, whole UniProt chain shown; for ddG of mutation (higher = less stable) / heat capacity change of unfolding / denaturant m value / denaturant midpoint (higher = more stable) / unfolding free energy: 25 °C

Variant | ddG of mutation (higher = less stable) (pH 3.5, Thermal, DSC) [kcal/mol] | heat capacity change of unfolding (pH 3.5, Thermal, DSC) [kcal/mol/K] | Tm (pH 3.5, Thermal, DSC) [°C] | change of melting temperature, mutant - wild type (higher = more stable) (pH 3.5, Thermal, DSC) [°C] | unfolding enthalpy (calorimetric) (pH 3.5, Thermal, DSC) [kcal/mol] | unfolding enthalpy (van 't Hoff) (pH 3.5, Thermal, DSC) [kcal/mol] | ddG of mutation (higher = less stable) (pH 6.3, GdnHCl, Fluorescence) [kcal/mol] | denaturant m value (pH 6.3, GdnHCl, Fluorescence) [kcal/mol/M] | denaturant midpoint (higher = more stable) (pH 6.3, GdnHCl, Fluorescence) [M] | unfolding free energy (pH 6.3, GdnHCl, Fluorescence) [kcal/mol] | ddG of mutation (higher = less stable) (pH 3, Thermal, DSC) [kcal/mol] | heat capacity change of unfolding (pH 3, Thermal, DSC) [kcal/mol/K] | Tm (pH 3, Thermal, DSC) [°C] | change of melting temperature, mutant - wild type (higher = more stable) (pH 3, Thermal, DSC) [°C] | unfolding enthalpy (calorimetric) (pH 3, Thermal, DSC) [kcal/mol] | unfolding enthalpy (van 't Hoff) (pH 3, Thermal, DSC) [kcal/mol]
MSSVEKKPEGVNTGAGDRHNLKTEWPELVGKSVEEAKKVILQDKPEAQVIVLPVGTIVTMEYRIDRVRLFVDKLDNIAQVPRVG | 0.92 | 0.72 | 69.1 | -4.7 | 62.4 | 61.6 | 0.75 | 1.99 | 3.43 | 6.8 | – | – | – | – | – | –
MSSVEKKPEGVNTGAGDRHNLKTEWPELVGKSVEEAKKVILQDKPEAQAIVLPVGTIVTMEYRIDRVRLFVDKLDNIAQVPRVG | 3.89 | 0.72 | 52.5 | -21.3 | 44.9 | 46.9 | 3.4 | 2.07 | 2 | 4.14 | – | – | – | – | – | –
MSSVEKKPEGVNTGAGDRHNLKTEWPELVGKSVEEAKKVVLQDKPEAQIIVLPVGTIVTMEYRIDRVRLFVDKLDNIAQVPRVG | – | – | 67.3 | -6.5 | 61.5 | 62.5 | 0.91 | 1.99 | 3.33 | 6.63 | 1.2 | 0.72 | 57.7 | -6.3 | 53.7 | 54.8
MSSVEKKPEGVNTGAGDRHNLKTEWPELVGKSVEEAKKVILQDKPEAQIIVLPVGTIVTMEYRIDRVRLFADKLDNIAQVPRVG | – | – | – | – | – | – | 1.13 | 2.15 | 2.98 | 6.41 | 2.17 | 0.72 | 51.3 | -12.7 | 48.5 | 49.7
MSSVEKKPEGVNTGAGDRHNLKTEWPELVGKSVEEAKKVILQDKPEAQIIVLPVGTIVTMEYRIDRVRAFVDKLDNIAQVPRVG | 3.74 | 0.72 | 52.3 | -21.5 | 46.7 | 46.9 | 3.56 | 1.98 | 2.01 | 3.98 | – | – | – | – | – | –
MSSVEKKPEGVNTGAGDRHNLKTEWPELVGKSVEEAKKVILQDKPEAQIIVLPVGTIVTMEYRIDRVRLFVDKLDNVAQVPRVG | – | – | – | – | – | – | – | – | – | – | -0.09 | 0.72 | 65.4 | 1.4 | 60.5 | 60.5
MSSVEKKPEGVNTGAGDRHNLKTEWPELVGKSVEEAKKVILQDKPEAQIIVLPVGTIVTMEYRIDRVRLFVDKLDNAAQVPRVG | 4.34 | 0.72 | 50.3 | -23.5 | 41 | 46.8 | 4.09 | 1.93 | 1.79 | 3.45 | 4.23 | 0.72 | 38.3 | -25.7 | 30.2 | 37.2
MSSVEKKPEGVNTGAGDRHNLKTEWPEAVGKSVEEAKKVILQDKPEAQIIVLPVGTIVTMEYRIDRVRLFVDKLDNIAQVPRVG | – | – | – | – | – | – | 1.91 | 2.15 | 2.62 | 5.63 | – | – | 48.5 | -15.5 | 45 | 44.4
MSSVEKKPEGVNTGAGDRHNLKTEWPELVGKSVEEAKKVILQDKPEAQAIVLPVGTIVTMEYRIDRVRLFVDKLDNVAQVPRVG | 4.69 | 0.72 | – | – | – | – | 4.08 | 1.83 | 1.9 | 3.46 | – | – | – | – | – | –
MSSVEKKPEGVNTGAGDRHNLKTEWPELVGKSVEEAKKVILQDKPEAQIIVLPVGTIVTMEYRIDRARLFVDKLDNIAQVPRVG | – | – | 45.3 | -28.5 | 37.3 | 35.8 | 4.97 | 1.76 | 1.46 | 2.57 | – | – | – | – | – | –
MSSVEKKPEGVNTGAGDRHNLKTEWPELVGKSVEEAKKAILQDKPEAQIIVLPVGTIVTMEYRIDRVRLFVDKLDNIAQVPRVG | – | – | – | – | – | – | 0 | 2.01 | 3.75 | 7.54 | 0.46 | 0.72 | 61.1 | -2.9 | 58.5 | 58.6
